These results are taken from paper PMC9599597.

In this experiment the target is F5_SusD-like protein (uncultured human gut Bacteroides strain). Kind of experiment: SEC; Superdex 200 16/600 column; 20 mM Tris-HCl, 150 mM NaCl, pH 7.5. In general terms: SEC sorts molecules by how far they enter the pores of the column.

Usually stoichiometry N stands for the number of molecules, sites or subunits per partner or assembly.

The substance F5_SusD-like protein (natural protein) showed a stoichiometry N of 2.
